{"source": "the DeepSol protein solubility set", "data": [{"assay": "soluble on expression in E. coli; label from the status in PepcDB or PDB records", "values": [{"sequence": "MGSDKIHHHHHHMTVFILNGEEPNQEGVRYVAKLLKREKLVEDIHFSTIDEIPLDNSYVLGDHSGTYFILKKIKPNALISLDAHTDLMQDYFDHASWLAYALKDNIIKRASVIGAVLMIPTTSGTKLWKRGVKVFPALPRTKKIRGKWKAYTNLEQHGVERVLKETREFLGKEIYLSIDLDVLSPEYRIARFQHGELTLRELLDIIEAIKKNFKIIAFDVAEISFRVAKSKYGRRAIIEVFSSLKEVFE", "soluble on expression in E. coli": "not soluble"}, {"sequence": "EKFPLVLMLEPTHLCNLACSGCGRIREYADTIQQMMSLEECLRSVDECPAPVVTITGGEPFLYTHIYELIPEVLDRGKHVYLCTNGLLLEKALENVKVHPNFYLNVHMDGLEETHDRILERKGTFKVAIEGIRKAKAKGFRVCTNTTIFKDTDLVEIEMLFSLLTDLGVDGILVAPGFDYEAVG", "soluble on expression in E. coli": "not soluble"}, {"sequence": "MQKQAELYRGKAKTVYSTENPDLLVLEFRNDTSAGDGARIEQFDRKGMVNNKFNYFIMSKLAEAGIPTQMERLLSDTECLVKKLDMVPVECVVRNRAAGSLVKRLGIEEGIELNPPLFDLFLKNDAMHDPMVNESYCETFGWVSKENLARMKELTYKANDVLKKLFDDAGLILVDFKLEFGLYKGEVVLGDEFSPDGSRLWDKETLEKMDKDRFRQSLGGLIEAYEAVARRLGVQLD", "soluble on expression in E. coli": "soluble"}, {"sequence": "MWLKVGGLLRGTGGQLGQTVGWPCGALGPGPHRWGPCGGSWAQKFYQDGPGRGLGEEDIRRAREARPRKTPRPQLSDRSRERKVPASRISRLANFGGLAVGLGLGVLAEMAKKSMPGGRLQSEGGSGLDSSPFLSEANAERIVQTLCTVRGAALKVGQMLSIQDNSFISPQLQHIFERVRQSADFMPRWQMLRVLEEELGRDWQAKVASLEEVPFAAASIGQVHQGLLRDGTEVAVKIQYPGIAQSIQSDVQNLLAVLKMSAALPAGLFAEQSLQALQQELAWECDYRREAACAQNFRQLLANDPFFRVPAVVKELCTTRVLGMELAGGVPLDQCQGLSQDLRNQICFQLLTLCLRELFEFRFMQTDPNWANFLYDASSHQVTLLDFGASREFGTEFTDHYIEVVKAAADGDRDCVLQKSRDLKFLTGFETKAFSDAHVEAVMILGEPFATQGPYDFGSGETARRIQDLIPVLLRHRLCPPPEETYALHRKLAGAFLACAHLRAHIACRDLFQDTYHRYWASRQPDAATAGSLPTKGDSWVDPS", "soluble on expression in E. coli": "not soluble"}, {"sequence": "GMRNELPPENAYRILESGPIVLVSTRGADGRANLMTMGFHMMMQHEPPLVGAIIGPWDYSHQALSETGECVLAVPTVDLAETVVDIGNCSGDALDKFGHFGLTPVPAQTVDAPLVRQCWANLECRVVDDGWARRYNLWVLEVQRIWIDTARKETRLIHHQGDGRFSVDGDTLDLGERMTKWRHLMG", "soluble on expression in E. coli": "soluble"}, {"sequence": "MAFLRSMWGVLSALGRSGAELCTGCGSRLRSPFSFVYLPRWFSSVLASCPKKPVSSYLRFSKEQLPIFKAQNPDAKTTELIRRIAQRWRELPDSKKKIYQDAYRAEWQVYKEEISRFKEQLTPSQIMSLEKEIMDKHLKRKAMTKKKELTLLGKPKRPRSAYNVYVAERFQEAKGDSPQEKLKTVKENWKNLSDSEKELYIQHAKEDETRYHNEMKSWEEQMIEVGRKDLLRRTIKKQRKYGAEEC", "soluble on expression in E. coli": "soluble"}, {"sequence": "GSDDLVGVSVRPKVPLRTMSYKLAIDMSHFIKEKGGLEGIYYSARRHRILDIYLEKEEGIIPDWQDYTSGPGIRYPKTFGWLWKLVPVNVSDEAQEDEEHYLMHPAQTSQWDDPWGEVLAWKFDPTLAYTYEAYVRYPEEFGS", "soluble on expression in E. coli": "soluble"}, {"sequence": "MGSDKIHHHHHHMMDFDFLEGKRLTEDVALDETMVWNEDIEMLDLHLVATSALIGVVHRVSYELLSRYLPNDYTAVVVETLARHVKAVPTGTRVAVGVRVVGVVGNRVKFRGIVMSGDEKILEAEFVRAIVPREKLRRLALEKAEKTSRLFGI", "soluble on expression in E. coli": "soluble"}]}]}
